{"source": "patent US20060257938A1", "about": "“Method of screening for drugs that block ligand binding to a lipid binding protein” (priority 2005, published 2006)", "molecules": {"B1": {"name": "11Q, 72A (protein, listed as Rattus norvegicus)", "chain": "AFDGTWKVDRQENYEKFMEKMGINVVKRKLGAHDNLKLTITQEGNKFTVKESSNFRNIDVVFELGVDFAYSAADGTELTGTWTMEGNKLVGKFKRVDNGKELIAVREISGNELIQTYTYEGVEAKRIFKKE", "modifications": "PEPTIDE (1)...(131) wild-type rat intestinal fatty acid binding protein"}, "B2": {"name": "40M, 72A (protein, listed as Rattus norvegicus)", "chain": "B1 chain with Q11N, I40M", "modifications": "PEPTIDE (1)...(131) wild-type rat intestinal fatty acid binding protein"}, "B3": {"name": "115W, 72A (protein, listed as Rattus norvegicus)", "chain": "B1 chain with Q11N, Q115W", "modifications": "PEPTIDE (1)...(131) wild-type rat intestinal fatty acid binding protein"}, "B4": {"name": "106F, 72A (protein, listed as Rattus norvegicus)", "chain": "B1 chain with Q11N, R106F", "modifications": "PEPTIDE (1)...(131) wild-type rat intestinal fatty acid binding protein"}, "B5": {"name": "21D, 72A (protein, listed as Rattus norvegicus)", "chain": "B1 chain with Q11N, M21D", "modifications": "PEPTIDE (1)...(131) wild-type rat intestinal fatty acid binding protein"}, "B6": {"name": "70H, 72A (protein, listed as Rattus norvegicus)", "chain": "B1 chain with Q11N, Y70H", "modifications": "PEPTIDE (1)...(131) wild-type rat intestinal fatty acid binding protein"}, "B7": {"name": "73Y, 72A (protein, listed as Rattus norvegicus)", "chain": "B1 chain with Q11N, A73Y", "modifications": "PEPTIDE (1)...(131) wild-type rat intestinal fatty acid binding protein"}, "B8": {"name": "31W, 72A (protein, listed as Rattus norvegicus)", "chain": "B1 chain with Q11N, G31W", "modifications": "PEPTIDE (1)...(131) wild-type rat intestinal fatty acid binding protein"}, "B9": {"name": "91Y, 72A (protein, listed as Rattus norvegicus)", "chain": "B1 chain with Q11N, G91Y", "modifications": "PEPTIDE (1)...(131) wild-type rat intestinal fatty acid binding protein"}, "B10": {"name": "38Y 72G 117M (protein, listed as Rattus norvegicus)", "chain": "B1 chain with Q11N, L38Y, A72G, Y117M", "modifications": "PEPTIDE (1)...(131) wild-type rat intestinal fatty acid binding protein"}, "B11": {"name": "119L, 72A (protein, listed as Rattus norvegicus)", "chain": "B1 chain with Q11N, Y119L", "modifications": "PEPTIDE (1)...(131) wild-type rat intestinal fatty acid binding protein"}, "B12": {"name": "70S, 72A (protein, listed as Rattus norvegicus)", "chain": "B1 chain with Q11N, Y70S", "modifications": "PEPTIDE (1)...(131) wild-type rat intestinal fatty acid binding protein"}, "B13": {"name": "40V, 72A (protein, listed as Rattus norvegicus)", "chain": "B1 chain with Q11N, I40V", "modifications": "PEPTIDE (1)...(131) wild-type rat intestinal fatty acid binding protein"}, "B14": {"name": "91C, 72A (protein, listed as Rattus norvegicus)", "chain": "B1 chain with Q11N, G91C", "modifications": "PEPTIDE (1)...(131) wild-type rat intestinal fatty acid binding protein"}, "B15": {"name": "49M, 72A (protein, listed as Rattus norvegicus)", "chain": "B1 chain with Q11N, V49M", "modifications": "PEPTIDE (1)...(131) wild-type rat intestinal fatty acid binding protein"}, "B16": {"name": "38G, 72A (protein, listed as Rattus norvegicus)", "chain": "B1 chain with Q11N, L38G", "modifications": "PEPTIDE (1)...(131) wild-type rat intestinal fatty acid binding protein"}, "B17": {"name": "18L, 72A (protein, listed as Rattus norvegicus)", "chain": "B1 chain with Q11N, M18L", "modifications": "PEPTIDE (1)...(131) wild-type rat intestinal fatty acid binding protein"}, "B18": {"name": "14L 38I 72A (protein, listed as Rattus norvegicus)", "chain": "B1 chain with Q11N, Y14L, L38I", "modifications": "PEPTIDE (1)...(131) wild-type rat intestinal fatty acid binding protein"}, "B19": {"name": "72A 117A (protein, listed as Rattus norvegicus)", "chain": "B1 chain with Q11N, Y117A", "modifications": "PEPTIDE (1)...(131) wild-type rat intestinal fatty acid binding protein"}, "B20": {"name": "126K, 72A (protein, listed as Rattus norvegicus)", "chain": "B1 chain with Q11N, R126K", "modifications": "PEPTIDE (1)...(131) wild-type rat intestinal fatty acid binding protein"}, "B21": {"name": "104S, 72A (protein, listed as Rattus norvegicus)", "chain": "B1 chain with Q11N, A104S", "modifications": "PEPTIDE (1)...(131) wild-type rat intestinal fatty acid binding protein"}, "B22": {"name": "70W, 72A (protein, listed as Rattus norvegicus)", "chain": "B1 chain with Q11N, Y70W", "modifications": "PEPTIDE (1)...(131) wild-type rat intestinal fatty acid binding protein"}, "B23": {"name": "18K, 72A (protein, listed as Rattus norvegicus)", "chain": "B1 chain with Q11N, M18K", "modifications": "PEPTIDE (1)...(131) wild-type rat intestinal fatty acid binding protein"}}, "note": "Substitutions are numbered along the chain they refer to."}
{"test": "Probe fluorescence ratio response to oleic acid relative to ADIFAB2", "format": "binding", "conditions": "response relative to ADIFAB2", "summary_of_the_method": "(§1)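 Each fatty acid's response was expressed relative to ADIFAB2, the rI-FABP-L72A probe, as ΔR/ΔRreference. ΔR is the change in the background-corrected two-wavelength intensity ratio R=Fλ1/Fλ2 from its analyte-free baseline R0. Emission was read near about 420-480 nm for unbound and about 495-580 nm for FFA-bound probe.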"}
{"molecule": "B1", "DR/DR OA": 1.716}
{"molecule": "B2", "DR/DR OA": 0.990}
{"molecule": "B3", "DR/DR OA": 1.352}
{"molecule": "B4", "DR/DR OA": 0.815}
{"molecule": "B5", "DR/DR OA": 1.345}
{"molecule": "B6", "DR/DR OA": 0.836}
{"molecule": "B7", "DR/DR OA": 1.537}
{"molecule": "B8", "DR/DR OA": 0.868}
{"molecule": "B9", "DR/DR OA": 1.706}
{"molecule": "B10", "DR/DR OA": 1.137}
{"molecule": "B11", "DR/DR OA": 0.778}
{"molecule": "B12", "DR/DR OA": 0.727}
{"molecule": "B13", "DR/DR OA": 1.002}
{"molecule": "B14", "DR/DR OA": 1.470}
{"molecule": "B15", "DR/DR OA": 1.296}
{"molecule": "B16", "DR/DR OA": 0.945}
{"molecule": "B17", "DR/DR OA": 1.551}
{"molecule": "B18", "DR/DR OA": 0.653}
{"molecule": "B19", "DR/DR OA": 1.080}
{"molecule": "B20", "DR/DR OA": 0.631}
{"molecule": "B21", "DR/DR OA": 1.663}
{"molecule": "B22", "DR/DR OA": 0.381}
{"molecule": "B23", "DR/DR OA": 0.803}
{"test": "Probe fluorescence ratio response to linolenic acid relative to ADIFAB2", "format": "binding", "conditions": "response relative to ADIFAB2", "summary_of_the_method": "as §1"}
{"molecule": "B1", "DR/DR LNA": 1.582}
{"molecule": "B2", "DR/DR LNA": 1.021}
{"molecule": "B3", "DR/DR LNA": 1.396}
{"molecule": "B4", "DR/DR LNA": 0.706}
{"molecule": "B5", "DR/DR LNA": 1.478}
{"molecule": "B6", "DR/DR LNA": 0.886}
{"molecule": "B7", "DR/DR LNA": 1.603}
{"molecule": "B8", "DR/DR LNA": 1.031}
{"molecule": "B9", "DR/DR LNA": 1.626}
{"molecule": "B10", "DR/DR LNA": 1.228}
{"molecule": "B11", "DR/DR LNA": 1.053}
{"molecule": "B12", "DR/DR LNA": 0.703}
{"molecule": "B13", "DR/DR LNA": 1.059}
{"molecule": "B14", "DR/DR LNA": 1.420}
{"molecule": "B15", "DR/DR LNA": 1.369}
{"molecule": "B16", "DR/DR LNA": 0.992}
{"molecule": "B17", "DR/DR LNA": 1.544}
{"molecule": "B18", "DR/DR LNA": 1.177}
{"molecule": "B19", "DR/DR LNA": 0.689}
{"molecule": "B20", "DR/DR LNA": 1.017}
{"molecule": "B21", "DR/DR LNA": 1.538}
{"molecule": "B22", "DR/DR LNA": 0.385}
{"molecule": "B23", "DR/DR LNA": 0.925}
{"test": "Probe fluorescence ratio response to linoleic acid relative to ADIFAB2", "format": "binding", "conditions": "response relative to ADIFAB2", "summary_of_the_method": "as §1"}
{"molecule": "B1", "DR/DR LA": 1.715}
{"molecule": "B2", "DR/DR LA": 1.086}
{"molecule": "B3", "DR/DR LA": 1.486}
{"molecule": "B4", "DR/DR LA": 0.812}
{"molecule": "B5", "DR/DR LA": 1.562}
{"molecule": "B6", "DR/DR LA": 0.929}
{"molecule": "B7", "DR/DR LA": 1.711}
{"molecule": "B8", "DR/DR LA": 1.147}
{"molecule": "B9", "DR/DR LA": 1.415}
{"molecule": "B10", "DR/DR LA": 1.233}
{"molecule": "B11", "DR/DR LA": 1.134}
{"molecule": "B12", "DR/DR LA": 0.794}
{"molecule": "B13", "DR/DR LA": 1.057}
{"molecule": "B14", "DR/DR LA": 1.371}
{"molecule": "B15", "DR/DR LA": 1.370}
{"molecule": "B16", "DR/DR LA": 1.003}
{"molecule": "B17", "DR/DR LA": 1.596}
{"molecule": "B18", "DR/DR LA": 1.090}
{"molecule": "B19", "DR/DR LA": 1.193}
{"molecule": "B20", "DR/DR LA": 1.039}
{"molecule": "B21", "DR/DR LA": 1.715}
{"molecule": "B22", "DR/DR LA": 0.451}
{"molecule": "B23", "DR/DR LA": 0.967}
{"test": "Probe fluorescence ratio response to palmitic acid relative to ADIFAB2", "format": "binding", "conditions": "response relative to ADIFAB2", "summary_of_the_method": "as §1"}
{"molecule": "B1", "DR/DR PA": 1.450}
{"molecule": "B2", "DR/DR PA": 0.691}
{"molecule": "B3", "DR/DR PA": 0.805}
{"molecule": "B4", "DR/DR PA": 0.369}
{"molecule": "B5", "DR/DR PA": 0.707}
{"molecule": "B6", "DR/DR PA": 0.567}
{"molecule": "B7", "DR/DR PA": 0.982}
{"molecule": "B8", "DR/DR PA": 0.618}
{"molecule": "B9", "DR/DR PA": 0.870}
{"molecule": "B10", "DR/DR PA": 0.574}
{"molecule": "B11", "DR/DR PA": 0.661}
{"molecule": "B12", "DR/DR PA": 0.416}
{"molecule": "B13", "DR/DR PA": 0.867}
{"molecule": "B14", "DR/DR PA": 0.794}
{"molecule": "B15", "DR/DR PA": 0.939}
{"molecule": "B16", "DR/DR PA": 0.447}
{"molecule": "B17", "DR/DR PA": 1.090}
{"molecule": "B18", "DR/DR PA": 0.712}
{"molecule": "B19", "DR/DR PA": 0.433}
{"molecule": "B20", "DR/DR PA": 0.356}
{"molecule": "B21", "DR/DR PA": 1.570}
{"molecule": "B22", "DR/DR PA": 0.212}
{"molecule": "B23", "DR/DR PA": 0.544}
{"test": "Probe fluorescence ratio response to arachidonic acid relative to ADIFAB2", "format": "binding", "conditions": "arachidonic acid; response relative to ADIFAB2", "summary_of_the_method": "as §1"}
{"molecule": "B1", "DR/DR AA": 1.525}
{"molecule": "B2", "DR/DR AA": 0.993}
{"molecule": "B3", "DR/DR AA": 1.483}
{"molecule": "B4", "DR/DR AA": 0.754}
{"molecule": "B5", "DR/DR AA": 1.301}
{"molecule": "B6", "DR/DR AA": 0.751}
{"molecule": "B7", "DR/DR AA": 1.529}
{"molecule": "B8", "DR/DR AA": 0.993}
{"molecule": "B9", "DR/DR AA": 1.273}
{"molecule": "B10", "DR/DR AA": 1.541}
{"molecule": "B11", "DR/DR AA": 1.021}
{"molecule": "B12", "DR/DR AA": 0.625}
{"molecule": "B13", "DR/DR AA": 1.013}
{"molecule": "B14", "DR/DR AA": 1.201}
{"molecule": "B15", "DR/DR AA": 1.363}
{"molecule": "B16", "DR/DR AA": 0.996}
{"molecule": "B17", "DR/DR AA": 1.490}
{"molecule": "B18", "DR/DR AA": 1.046}
{"molecule": "B19", "DR/DR AA": 1.480}
{"molecule": "B20", "DR/DR AA": 0.625}
{"molecule": "B21", "DR/DR AA": 1.638}
{"molecule": "B22", "DR/DR AA": 0.349}
{"molecule": "B23", "DR/DR AA": 0.800}
